From US12630850B2, “Enzymatic break down of chlorogenic acid in sunflower-containing products” (Chapman University, priority 2022, dated 2026)

Legend:
Type in all cases: biochemical
[1] = HPLC quantification of CGA in sunflower butter cookies; conditions: SFB cookies; both levels, 1.72×10^−1 and 1.72×10^−2 mg/g butter
Source text: Cookie formulations and baking conditions. The cookie dough formulation consisted of baking soda (2.2 g), salt (2.2 g), whole egg (46.8 g), maple syrup (76.3 g), vanilla extract (2.2 g), flour (145.8 g), and butter (87.5 g). CGA esterase treatments in SFF, utilized almond butter instead of SFB. The wet (sunflower or almond butter, maple syrup, eggs, and vanilla extract) and dry (flour, baking soda, and salt) ingredients were mixed separately and subsequently combined and mixed for 75 s with an electric hand mixer. The dough was rolled out and cut to the following dimensions: 6 mm thickness and 40 mm diameter. Cookies were baked for 7 min in a convection oven preheated to 149° C. (300° F.) and allowed to cool at room temperature for 10 min before further analysis.
Preparation of sunflower butter cookies with chlorogenic acid/CGA esterase. […]
High-performance liquid chromatography (HPLC) quantification of phenolic content in sunflower cookies. […] The extract was filtered through 0.20 μm syringe filters and analyzed with an Agilent 1260 Infinity II system (Agilent Technologies) equipped with a quaternary pump (G7111B), vial sampler (G7129A), and diode array detector (HS G7117C). […] CGA and caffeic acid concentrations were detected at 320 nm and quantified using a standard curve between 0.00-0.10 mg ml^−1 CGA (y=172287x, R^2=0.994) and caffeic acid (y=248557x, R^2=0.967).

[2] = CGA esterase kinetics in sunflower meal
Protocol: Chlorogenic acid esterase kinetics in sunflower meal. To determine the Michaelis-Menten parameters of CGA esterase in undefatted SFM, SFM suspensions were made at following concentrations: 1.0 mg mL^−1, 2.5 mg mL^−1, 10.0 mg mL^−1, 30.0 mg mL^−1, and 100.0 mg mL^−1. All samples were made to a final volume of 10 mL in a solution containing 50 mM HEPES, pH 8.0. Treated samples contained a final enzyme concentration of 10 nM. Reactions were stopped by acidifying the solution by adding 120 μL of 37% HCl at regular intervals for 600 s. Samples were subsequently centrifuged at 10,000 rpm for 10 min. […] The supernatant was then filtered using a 0.2 μm filter and loaded onto an HPLC, as described above. The initial amount of CGA that was present prior to adding enzyme was measured using HPLC.
(§1) HPLC quantification of CGA and CA in sunflower meal and protein isolates. All solutions were diluted ten-fold in 0.1% formic acid in HPLC-grade water before analysis. Quantification of CGA and CA concentration was performed using an Agilent 1260 series HPLC instrument (Agilent Technologies) equipped with a quaternary pump, an automated sample injector, a diode array detector, and a 4.6 mm×150 mm Luna C18(2) column with a 5 μm particle size and 100 Å pore size (Phenomenex). The injection volume was 20 μL. To elute analytes, mobile phases composed of 0.1% formic acid in HPLC-grade water (A) and 0.1% formic acid in HPLC-grade acetonitrile (B) were used in a linear gradient. The gradient is as follows: 0 to 13% B in 1 min, up to 27% B at 8 min, up to 100% B at 8.5 min, isocratic at 100% B to 9.5 min, 100% B returned to 0% B at 9.6 min with 3 min post-time. The concentrations of CGA and CA were calculated from peak integration data based on 10-point standard curve that spanned a concentration range of 0 to 0.1 mg mL^−1.

[3] = CGA and CA content of sunflower protein isolates (HPLC); conditions: enzyme present
Source text: Sunflower meal and sunflower protein treatment with chlorogenic acid esterase. Sunflower seeds were ground using a KitchenAid coffee grinder in two 30 s increments and sieved through a 500 μm filter to make SFM. Two defatting methods were used: cold press and hexane extraction. To make cold pressed SFM, ground seeds were pressed in a Carver Hydraulic Unit Model 3912 3852-0 five times to a pressure of 9,000-10,000 psi. For hexane extracted SFM, fat was removed from ground seeds using a Soxhlet apparatus in 250 mL hexane for 18 h and subsequently dried using a Fischer Scientific Isotemp Oven Model 516G at 45° C. for 3 h. Cold pressed, hexane extracted, and undefatted SFM were then sieved through a 500 μm filter.
To make SPI, 12.5 g of cold pressed, hexane extracted, and undefatted SFM were buffered in 50 mM HEPES at pH 8.0. Samples were continuously stirred for about 10 min until all SFM was completely suspended. Then, 0.2 mg of CGA esterase per g of SFM was added. The final volume for all reactions was 125 mL. In untreated samples, a buffered solution of 50 mM HEPES, pH 8.0 was added instead of the enzyme solution. After 10 min, 0.1 M NaOH was added to each solution until pH reached 9.00±0.03. Samples were left to sit for 30 min and then centrifuged at 5,000 rpm for 20 min at 4° C. The supernatant was placed back into a 250 mL beaker and pH was lowered using 0.1 M HCl to reach an isoelectric pH of 5.00±0.03. Samples were allowed to precipitate at 4° C. overnight (14-16 h). The supernatant was discarded, and the precipitate was lyophilized for 20 h. All experiments (controls and CGA esterase treated samples) were duplicated.
as §1

[4] = SFM supernatant, pH 8.0, 20° C.

- Meal concentration at which maximal CGA hydrolysis activity is achieved [2]: approximately 100 mg mL^−1
B1: CGA esterase: CGA esterase from L. helveticus (Genbank ID: WP_025283955.1, Uniprot ID: U6F2K7), expressed in Escherichia coli; the dimer is the active form (protein, listed as Lactobacillus helveticus)
chain: MSRITIERDGLTLVGDREEPFGEIYDMAIIMHGFAANRNTDLLRQIADDLRDENVASVRFDFNGHGESDGKFEDMTVCNEIADGKAILDYVRTDPHVRDIFLVGHSQGGVVASMLAGLYPDVVKKVVLLAPAAQLKDDALRSNTQGATYDPNHIPDWPLVGNKLGMKLGGFYLRTAQVLPIYEVSQCFTRPVSVIAGTNDQWDPKYAKKYDEVYENSELHMIPNADHRFSGGYKDMAADLTAQFLKPAF
- Decrease of CGA concentration [1]: 90-95%
- Km in SFM lower than in buffered solution [2]: 4.5 fold
- Vmax in SFM lower than in buffered solution [2]: 60 fold
- Km [2, 4]: 20 µM
- Vmax [2, 4]: 2.716 mM/min/mg
- mg CA/g protein ([3]; SPI from cold pressed SFM): 3.62 ± 0.05 mg CA/g protein
- mg CGA/g protein ([3]; SPI from cold pressed SFM): 0.00 ± 0.00 mg CGA/g protein
- mg CA/g protein ([3]; SPI from hexane extracted SFM): 3.38 ± 0.25 mg CA/g protein
- mg CGA/g protein ([3]; SPI from hexane extracted SFM): 0.00 ± 0.00 mg CGA/g protein
- mg CA/g protein ([3]; SPI from undefatted SFM): 1.11 ± 0.38 mg CA/g protein
- mg CGA/g protein ([3]; SPI from undefatted SFM): 0.00 ± 0.00 mg CGA/g protein
